The data set in a line: Viscosity measurement and state of medium composition. Type of data set: physicochemical. The settings on record: for viscosity: 37° C., 100 rpm. The protocol:
Deacylated gellan gum (KELCOGEL CG-LA, manufactured by SANSHO Co., Ltd.) was suspended in pure water to 0.4% (w/v), and dissolved by stirring with heating at 90° C. This aqueous solution was allowed to cool to room temperature with stirring, and sterilized at 121° C. for 20 min in an autoclave. A 2-fold concentration of DMEM/F-12 medium (manufactured by Aldrich, 50 mL) and sterilization water (47.5 mL) were placed in a 300 mL tall beaker with stirring by a homomixer (3000 rpm) at room temperature, aqueous deacylated gellan gum solution (2.5 mL) was added, and the mixture was continuously stirred for 1 min to prepare a deacylated gellan gum medium composition with a final concentration of 0.01%. Medium compositions added with aqueous deacylated gellan gum solution with final concentrations of 0.02, 0.03 and 0.05% (w/v) were similarly prepared. The viscosity of the medium compositions was measured using an E type viscometer (manufactured by Toki Sangyo Co., Ltd., Viscometer TVE-22 L, standard roter 1° 34′×R24) under 37° C. condition at 100 rpm for 5 min.
The medium compositions prepared above were subjected to a suspension test of HeLa cell spheres and a viscosity measurement, in the same manner as with the deacylated gellan gum-containing medium. The viscosity of 1.0% (w/v) methylcellulose was measured at 50 rpm due to the measurement range of the apparatus.
In the same manner as in Reference Experimental Example 2, spheres of HeLa cells were formed, and several tens of the spheres were added to each medium (1 mL) prepared above, the mixture was stood still at 37° C. for 1 hr, and the suspended state of the sphere cells was visually observed. […] Furthermore, it was confirmed that addition of an equal amount of the medium to the cell suspension and centrifugation (300 to 400G, for 5 min) thereof result in sedimentation and recovery of the spheres of HeLa cells.
By a method similar to that for the polysaccharide mixture of Reference Experimental Example 9, DMEM/F-12 media containing deacylated gellan gum at a final concentration of 0.005, 0.01% (w/v) and other polysaccharide were prepared. The final concentration of polysaccharide was set to 0.1% (w/v) for xanthan gum, sodium alginate, locust bean gum, 0.2% (w/v) for methylcellulose, and 0.05% (w/v) for K-carageenan and diutan gum. The state of each medium composition and the viscosity measured by a method similar to that in Analysis Example 1 are shown in Tables 11-16.

Take collagen: the state result (0.01% (w/v) in DMEM/F-12) is listed as “liquid”, the state result (0.05% (w/v) in DMEM/F-12) is “liquid/solid”, the state entry (0.1% (w/v) in DMEM/F-12) was “solid (gel)” and the state result (0.2% (w/v) in DMEM/F-12) is recorded as “solid (gel)”. For the same substance, the viscosity entry by setting is: (0.05% (w/v) in DMEM/F-12) “unmeasurable”; (0.1% (w/v) in DMEM/F-12) “unmeasurable”; (0.2% (w/v) in DMEM/F-12) “unmeasurable”.

(Values after US10487308B2, “Culture medium composition” (NISSAN CHEMICAL CORPORATION, priority 2014, dated 2019).)
